Molecular target: T1, mouse GPR12 (mouse, UniProt P35412 1-334)
T1 sequence: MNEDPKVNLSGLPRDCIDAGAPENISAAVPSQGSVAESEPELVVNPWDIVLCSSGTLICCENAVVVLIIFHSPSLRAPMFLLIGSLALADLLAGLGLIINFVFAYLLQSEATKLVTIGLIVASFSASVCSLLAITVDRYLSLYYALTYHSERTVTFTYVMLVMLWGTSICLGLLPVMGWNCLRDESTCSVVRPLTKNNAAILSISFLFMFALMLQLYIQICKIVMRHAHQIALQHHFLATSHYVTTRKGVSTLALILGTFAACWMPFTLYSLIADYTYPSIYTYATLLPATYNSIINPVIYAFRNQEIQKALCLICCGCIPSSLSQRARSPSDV
Experiment: cell-based or functional assay

- intracellular cAMP level (Fold against the (-) group), CHO-K1-GPR12 cells, 10^-9 M peptide with 10^-5 M Forskolin: ~5 fold
Binder: PDTGLYYDEYLKQVIDVLETDKHFREKLQK [Nesfatin-1M30]

— patent publication US20090155833A1 (TEIJIN PHARMA, published 2009)
